Measurements taken from PMC7988105, “Canonical versus non-canonical transsynaptic signaling of neuroligin 3 tunes development of sociality in mice” (Nature Communications, 2021).

B1: mouse NLGN3 ECD (residues 35–684) with C-terminal His6 tag (domain or fragment, UniProt Q8BYM5 35-684, looked up)
chain: QAPAPTVNTHFGKLRGARVPLPSEILGPVDQYLGVPYAAPPIGEKRFLPPEPPPSWSGIRNATHFPPVCPQNIHTAVPEVMLPVWFTANLDIVATYIQEPNEDCLYLNVYVPTEDGSGAKKQGEDLADNDGDEDEDIRDSGAKPVMVYIHGGSYMEGTGNMIDGSVLASYGNVIVITLNYRVGVLGFLSTGDQAAKGNYGLLDQIQALRWVSENIAFFGGDPRRITVFGSGIGASCVSLLTLSHHSEGLFQRAIIQSGSALSSWAVNYQPVKYTSLLADKVGCNVLDTVDMVDCLRQKSAKELVEQDIQPARYHVAFGPVIDGDVIPDDPEILMEQGEFLNYDIMLGVNQGEGLKFVEGVVDPEDGVSGTDFDYSVSNFVDNLYGYPEGKDTLRETIKFMYTDWADRDNPETRRKTLVALFTDHQWVEPSVVTADLHARYGSPTYFYAFYHHCQSLMKPAWSDAAHGDEVPYVFGVPMVGPTDLFPCNFSKNDVMLSAVVMTYWTNFAKTGDPNKPVPQDTKFIHTKANRFEEVAWSKYNPRDQLYLHIGLKPRVRDHYRATKVAFWKHLVPHLYNLHDMFHYTSTTTKVPPPDTTHSSHITRRPNGKTWSTKRPAISPAYSNENAPGSWNGDQDAGPLLVENPRDYSTE
notes: mouse neuroligin 3, NLGN3A isoform, extracellular domain; Dimer by SEC-MALS and in both crystals; also called apo-NLGN3 ECD; wild-type NLGN3; not shown: His6, C-terminal, kept
B2: NRXN1β (lacking SS4) used for ITC (domain or fragment)
chain: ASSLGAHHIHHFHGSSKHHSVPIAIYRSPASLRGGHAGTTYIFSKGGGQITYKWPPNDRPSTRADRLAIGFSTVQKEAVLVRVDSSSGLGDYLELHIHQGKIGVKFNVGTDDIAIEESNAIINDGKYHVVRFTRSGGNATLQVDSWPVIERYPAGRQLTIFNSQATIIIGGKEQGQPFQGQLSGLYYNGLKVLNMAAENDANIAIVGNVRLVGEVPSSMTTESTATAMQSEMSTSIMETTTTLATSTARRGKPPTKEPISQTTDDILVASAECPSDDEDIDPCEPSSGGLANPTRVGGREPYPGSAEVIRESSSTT

How the values were obtained:
[1] = target: the molecule itself; assay: SEC-MALS; NLGN3 ECD wild-type at 1.5 g/L or R/C mutant at 1.1 g/L on ENrich SEC 650, 20 mM Tris-HCl pH 7.5, 150 mM NaCl
[2] = target: T1, NLGN3 ECD MF/IS mutant (M614I F615S) with His6 tag (mouse, UniProt Q8BYM5 35-684, M614I | F615S); assay: ITC; NLGN3 ECD (20 µM) in the cell, NRXN1β (200 µM) injected; 20 mM Tris-HCl pH 8.0, 150 mM NaCl, 1 mM CaCl2, 25 °C; one-site model; details: both partners purified
T1 construct: mouse neuroligin 3, NLGN3A isoform, extracellular domain (gene for residues 1–684 expressed and secreted), mutated; also called NLGN3-MF/IS; not shown: His6, C-terminal, kept

[3] = target: B1; assay: as above; details: both partners purified

Binder	stoichiometry N [1]	Kd [2] [nM]	Kd [3] [nM]
B1	2	–	–
B2	–	2300	1800
